# Assay results from US20050226881A1 (LUDWIG INSTITUTE FOR CANCER RESEARCH, published 2005).
# Molecular target: HLA-Cw*0701 (human)
# Assay: cell-based or functional assay
binder,measurement,value
"EGDCAPEEK [peptide (D), EGDCAPEEK (amino acids 2-10 of SEQ ID NO: 2)]","percent lysis (51Cr release) of autologous EBV-B cells loaded with 1 nM peptide, effector/target ratio 5:1",~34%
